Legend:
Experiment in all cases: SPR direct binding, antigen immobilized, hybridoma supernatant
A-beta42 monomer = target: T1, A-beta42 monomer (human)
T1 construct: also called Aβ 42 Monomer; A-beta 1-42 monomer
Method: (§1) SPR Analysis All SPR measurements were performed using a Molecular Affinity Screening System (MASS-1) (Sierra Sensors GmbH, Hamburg, Germany), an analytical biosensor that employs high intensity laser light and high speed optical scanning to monitor binding interactions in real time. The primary screening of tissue culture supernatants was performed using an SPR direct binding assay, whereby BSA-conjugated peptides, A-Beta42 Monomer and A-beta42 Oligomer are covalently immobilized on individual flow cells of a High Amine Capacity (HAC) sensorchip (Sierra Sensors GmbH, Hamburg, Germany) and antibodies flowed over the surface. Protein G purified mAbs were analyzed in a secondary screen using an SPR indirect (capture) binding assay, whereby the antibodies were captured on a protein A-derivatized sensorchip (XanTec Bioanalytics GmbH, Duesseldorf, Germany) and A-Beta40 Monomer, A-beta42 Oligomer, soluble brain extracts and cerebrospinal fluid flowed over the surface. The specificity of the antibodies was verified in an SPR direct binding assay by covalently immobilizing A-Beta42 Monomer and A-beta42 Oligomer on individual flow cells of a HAC sensorchip and flowing purified mAbs.
(§2) Clones were retested for their ability to bind cyclic peptide, linear peptide, A-beta 1-42 monomer and A-beta 1-42 oligomers prepared as described above. Binding assays were performed using SPR as described above (Direct binding assays).

[1] = target: T2, cyclo(CGHDSGG)-conjugated-BSA (SEQ ID NO: 2) (bovine, UniProt P02769 25-607, head-to-tail cyclized (amide bond between N-terminus and C-terminus); Cys conjugated to BSA through SMCC)
T2 construct: HDSG is A-beta residues 6-9; C, G and GG are linker residues; also called Cyclic-Peptide; cyclic peptide
Method: as §1, §2

A-beta42 oligomer = target: T3, A-beta42 oligomer (human)
T3 construct: also called Aβ 42 Oligomer; A-beta 1-42 oligomers
Method: as §1, §2

T3 sequence (peptide, as listed by the source): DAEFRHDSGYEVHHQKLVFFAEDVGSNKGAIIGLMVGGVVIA
T1 sequence (peptide, as listed by the source): as above
T2 sequence (P02769 25-607 limits assumed): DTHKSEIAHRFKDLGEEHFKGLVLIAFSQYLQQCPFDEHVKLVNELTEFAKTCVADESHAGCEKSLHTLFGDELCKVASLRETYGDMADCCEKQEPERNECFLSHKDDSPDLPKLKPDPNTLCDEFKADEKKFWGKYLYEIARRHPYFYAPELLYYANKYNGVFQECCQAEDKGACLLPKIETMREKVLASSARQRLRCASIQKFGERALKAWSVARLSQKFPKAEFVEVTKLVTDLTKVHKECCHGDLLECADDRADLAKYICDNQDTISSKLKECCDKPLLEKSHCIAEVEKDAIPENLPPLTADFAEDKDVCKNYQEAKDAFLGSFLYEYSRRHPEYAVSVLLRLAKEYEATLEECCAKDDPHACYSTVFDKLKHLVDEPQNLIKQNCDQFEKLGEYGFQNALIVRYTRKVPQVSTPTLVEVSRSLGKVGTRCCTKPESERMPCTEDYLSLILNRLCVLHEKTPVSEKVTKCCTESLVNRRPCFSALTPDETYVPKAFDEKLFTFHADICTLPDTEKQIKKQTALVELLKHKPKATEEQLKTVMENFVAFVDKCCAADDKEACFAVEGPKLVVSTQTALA

B1: 303-25-1B4 (antibody, V domains shown)
VH: QVQLQQPGAELVRPGASVKLSCKASGYTFTSYWMNWVKQRPGQGLEWIGMIDPSDSQTHYNQMFKDKATLTVDKSSSTAYLQLSSLTSEDSAVYYCSRGGYWGQGTTLTVSS
VL: DIQMTQSPSSLSASLGGKVTITCKASQDINNYIAWYQHKPGKGPRQLIYYTSTLQPGIPSRFSGSGSGRDYSFTISDLEPEDIATYYCLQYDNLWTFGGGTKLEIK
notes: Mouse monoclonal raised against cyclo(CGHDSGG)-KLH; also called clone 25
SPR binding response (RU) (A-beta42 monomer): 56.5 RU | SPR binding response (RU) [1]: 136 RU | SPR binding response (RU) (A-beta42 oligomer): 109 RU

Source: patent publication US20180326086A1 (UNIVERSITY OF BRITISH COLUMBIA, published 2018)
